pKd: −log10 of the molar value.
Columns and labels:
[1] = biological target: low-density lipoprotein receptor-related protein (LRP), purified (human) (UniProt Q07954); assay: homologous displacement on LRP-coated wells
Target sequence in this assay (Q07954 20-4544): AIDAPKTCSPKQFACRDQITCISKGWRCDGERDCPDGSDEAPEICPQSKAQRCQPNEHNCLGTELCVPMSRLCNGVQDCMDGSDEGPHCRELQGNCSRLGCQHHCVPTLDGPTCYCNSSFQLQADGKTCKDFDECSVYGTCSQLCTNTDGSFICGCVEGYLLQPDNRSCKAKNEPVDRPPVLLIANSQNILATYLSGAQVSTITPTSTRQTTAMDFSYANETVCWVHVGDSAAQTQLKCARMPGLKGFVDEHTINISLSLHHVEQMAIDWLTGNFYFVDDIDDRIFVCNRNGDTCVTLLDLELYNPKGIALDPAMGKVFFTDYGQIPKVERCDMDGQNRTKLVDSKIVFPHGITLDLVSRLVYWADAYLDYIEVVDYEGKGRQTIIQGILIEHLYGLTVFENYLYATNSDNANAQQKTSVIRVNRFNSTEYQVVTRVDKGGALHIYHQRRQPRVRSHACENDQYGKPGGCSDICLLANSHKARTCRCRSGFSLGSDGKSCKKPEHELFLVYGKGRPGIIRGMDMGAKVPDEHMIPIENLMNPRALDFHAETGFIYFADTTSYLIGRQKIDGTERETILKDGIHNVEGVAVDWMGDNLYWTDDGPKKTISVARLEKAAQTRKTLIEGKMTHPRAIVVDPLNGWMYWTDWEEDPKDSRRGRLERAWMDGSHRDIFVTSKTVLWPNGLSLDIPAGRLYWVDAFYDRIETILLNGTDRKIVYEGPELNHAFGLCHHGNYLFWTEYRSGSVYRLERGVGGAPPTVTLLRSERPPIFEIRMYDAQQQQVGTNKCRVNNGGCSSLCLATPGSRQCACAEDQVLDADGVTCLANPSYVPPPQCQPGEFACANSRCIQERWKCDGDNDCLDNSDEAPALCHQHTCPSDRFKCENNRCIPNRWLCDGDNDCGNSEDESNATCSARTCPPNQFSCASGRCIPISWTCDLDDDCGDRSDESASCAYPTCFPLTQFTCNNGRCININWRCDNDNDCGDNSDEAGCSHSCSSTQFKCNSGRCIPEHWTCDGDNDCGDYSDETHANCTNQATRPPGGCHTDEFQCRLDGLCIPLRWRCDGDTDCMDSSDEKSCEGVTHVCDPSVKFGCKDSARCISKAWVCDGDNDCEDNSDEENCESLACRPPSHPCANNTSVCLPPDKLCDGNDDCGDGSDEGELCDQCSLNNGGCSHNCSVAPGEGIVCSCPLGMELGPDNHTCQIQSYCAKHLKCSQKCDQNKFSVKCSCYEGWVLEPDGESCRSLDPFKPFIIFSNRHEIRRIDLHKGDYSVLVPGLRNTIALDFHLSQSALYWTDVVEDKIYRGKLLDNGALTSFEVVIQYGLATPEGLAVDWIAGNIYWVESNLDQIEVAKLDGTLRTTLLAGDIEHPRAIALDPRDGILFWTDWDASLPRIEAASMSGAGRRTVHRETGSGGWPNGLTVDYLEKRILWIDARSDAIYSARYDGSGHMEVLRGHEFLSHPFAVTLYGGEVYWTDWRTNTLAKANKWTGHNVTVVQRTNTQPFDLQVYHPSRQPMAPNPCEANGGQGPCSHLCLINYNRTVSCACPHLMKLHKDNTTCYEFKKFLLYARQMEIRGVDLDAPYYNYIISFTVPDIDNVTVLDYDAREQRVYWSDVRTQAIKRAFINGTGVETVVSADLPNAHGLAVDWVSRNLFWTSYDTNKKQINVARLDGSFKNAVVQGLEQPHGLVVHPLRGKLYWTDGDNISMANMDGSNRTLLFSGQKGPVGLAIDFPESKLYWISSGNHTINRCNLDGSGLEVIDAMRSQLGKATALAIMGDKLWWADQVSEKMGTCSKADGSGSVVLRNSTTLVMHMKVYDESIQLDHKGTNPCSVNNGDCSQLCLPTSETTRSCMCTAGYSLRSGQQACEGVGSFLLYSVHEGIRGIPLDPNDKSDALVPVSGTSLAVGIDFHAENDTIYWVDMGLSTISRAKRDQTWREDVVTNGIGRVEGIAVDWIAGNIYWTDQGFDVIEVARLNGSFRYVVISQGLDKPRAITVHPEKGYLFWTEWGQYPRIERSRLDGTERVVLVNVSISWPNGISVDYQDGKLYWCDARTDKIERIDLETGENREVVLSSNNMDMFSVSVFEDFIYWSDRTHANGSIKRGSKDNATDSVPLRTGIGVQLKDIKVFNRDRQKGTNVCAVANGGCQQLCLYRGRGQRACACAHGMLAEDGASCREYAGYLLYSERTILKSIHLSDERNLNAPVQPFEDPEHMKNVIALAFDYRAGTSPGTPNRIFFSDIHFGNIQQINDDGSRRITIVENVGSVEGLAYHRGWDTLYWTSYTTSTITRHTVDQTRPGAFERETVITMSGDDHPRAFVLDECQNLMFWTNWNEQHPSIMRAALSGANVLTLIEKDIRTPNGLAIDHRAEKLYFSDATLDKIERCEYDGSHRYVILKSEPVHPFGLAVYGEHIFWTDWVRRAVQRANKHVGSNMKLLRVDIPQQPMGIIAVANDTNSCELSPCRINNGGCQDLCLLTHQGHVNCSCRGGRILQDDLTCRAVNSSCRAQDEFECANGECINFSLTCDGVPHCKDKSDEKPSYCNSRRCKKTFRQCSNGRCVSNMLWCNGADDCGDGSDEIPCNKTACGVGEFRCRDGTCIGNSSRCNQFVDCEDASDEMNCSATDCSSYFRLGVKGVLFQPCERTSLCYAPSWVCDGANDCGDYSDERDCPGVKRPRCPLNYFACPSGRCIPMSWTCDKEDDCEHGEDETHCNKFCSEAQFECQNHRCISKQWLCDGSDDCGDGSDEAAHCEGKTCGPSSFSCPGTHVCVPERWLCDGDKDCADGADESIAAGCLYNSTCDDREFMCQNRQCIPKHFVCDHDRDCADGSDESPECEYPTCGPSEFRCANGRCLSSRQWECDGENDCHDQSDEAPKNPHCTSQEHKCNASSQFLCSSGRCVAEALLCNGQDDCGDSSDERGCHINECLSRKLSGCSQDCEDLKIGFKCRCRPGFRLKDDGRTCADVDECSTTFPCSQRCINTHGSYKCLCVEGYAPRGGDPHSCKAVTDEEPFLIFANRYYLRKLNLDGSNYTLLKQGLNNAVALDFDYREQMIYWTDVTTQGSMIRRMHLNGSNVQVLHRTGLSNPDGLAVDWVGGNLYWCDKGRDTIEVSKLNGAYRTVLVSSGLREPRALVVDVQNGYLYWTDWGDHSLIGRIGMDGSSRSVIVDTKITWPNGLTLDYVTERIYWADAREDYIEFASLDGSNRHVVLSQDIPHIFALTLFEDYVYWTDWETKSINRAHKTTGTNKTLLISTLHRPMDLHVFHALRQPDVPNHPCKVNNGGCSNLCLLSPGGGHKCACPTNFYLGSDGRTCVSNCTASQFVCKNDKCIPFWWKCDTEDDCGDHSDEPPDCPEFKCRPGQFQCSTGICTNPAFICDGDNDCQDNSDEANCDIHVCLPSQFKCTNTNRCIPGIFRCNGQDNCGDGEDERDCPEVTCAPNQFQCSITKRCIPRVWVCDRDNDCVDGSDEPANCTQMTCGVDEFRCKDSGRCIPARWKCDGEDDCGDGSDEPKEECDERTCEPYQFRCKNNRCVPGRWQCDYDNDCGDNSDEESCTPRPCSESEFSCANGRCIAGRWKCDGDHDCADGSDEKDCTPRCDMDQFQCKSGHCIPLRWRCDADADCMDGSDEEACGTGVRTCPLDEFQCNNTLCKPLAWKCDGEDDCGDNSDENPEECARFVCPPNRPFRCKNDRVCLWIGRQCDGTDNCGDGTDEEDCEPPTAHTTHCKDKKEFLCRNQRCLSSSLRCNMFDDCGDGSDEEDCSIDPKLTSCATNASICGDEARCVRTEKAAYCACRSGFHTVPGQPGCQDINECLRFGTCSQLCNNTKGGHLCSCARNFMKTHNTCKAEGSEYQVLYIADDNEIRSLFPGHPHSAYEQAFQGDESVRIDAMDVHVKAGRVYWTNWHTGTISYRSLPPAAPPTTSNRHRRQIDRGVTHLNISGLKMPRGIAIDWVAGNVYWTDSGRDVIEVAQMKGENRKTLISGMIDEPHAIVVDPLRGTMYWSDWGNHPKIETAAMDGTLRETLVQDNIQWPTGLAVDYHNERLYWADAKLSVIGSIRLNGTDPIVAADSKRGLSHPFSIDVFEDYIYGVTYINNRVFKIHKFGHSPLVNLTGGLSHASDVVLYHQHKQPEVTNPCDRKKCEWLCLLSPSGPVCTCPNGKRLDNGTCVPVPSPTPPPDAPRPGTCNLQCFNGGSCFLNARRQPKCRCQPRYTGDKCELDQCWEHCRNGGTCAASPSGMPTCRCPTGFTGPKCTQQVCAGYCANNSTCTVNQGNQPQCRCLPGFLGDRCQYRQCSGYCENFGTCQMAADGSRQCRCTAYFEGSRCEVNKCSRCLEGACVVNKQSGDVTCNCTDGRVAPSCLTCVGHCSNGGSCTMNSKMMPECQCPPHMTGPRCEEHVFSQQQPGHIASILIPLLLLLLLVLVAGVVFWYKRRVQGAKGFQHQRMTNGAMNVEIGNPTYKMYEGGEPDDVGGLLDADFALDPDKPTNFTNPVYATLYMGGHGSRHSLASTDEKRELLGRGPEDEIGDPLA

[2] = biological target: low-density lipoprotein receptor-related protein (LRP), purified (human) (UniProt Q07954); assay: homologous displacement of ^125I-fVIII (1 nM) by unlabeled fVIII on LRP-coated wells, LIGAND fit
Target sequence in this assay (Q07954 20-4544): as above

[3] = biological target: low-density lipoprotein receptor-related protein (LRP), purified (human) (UniProt Q07954); assay: homologous ligand displacement: 125I-fVIII (1 nM) on LRP-coated microtiter wells, competitor unlabeled fVIII
Target sequence in this assay (Q07954 20-4544): as above

[4] = biological target: A1/A3-C1-C2 heterodimer of factor VIII, plasma-derived (human) (UniProt P00451); assay: cell-based or functional assay
[5] = biological target: low-density lipoprotein receptor-related protein (LRP), purified (human) (UniProt Q07954); assay: SPR, BIAcore 3000, one-site model, KD = koff/kon
Target sequence in this assay (Q07954 20-4544, form in doubt): as the sequence (Q07954 20-4544) above

[6] = biological target: low-density lipoprotein receptor-related protein (LRP), purified (human) (UniProt Q07954); assay: SPR, BIAcore 3000
Target sequence in this assay (Q07954 20-4544, form in doubt): as the sequence (Q07954 20-4544) above

Row | Substance | percent of binding competed by an excess of unlabeled fVIII [1] | pKd [2] | IC50 (read off the curve) [3] | Activity of reconstituted FVIIIa (% of wt activity) (% of wt activity) [4] | pKd [5] | fold decrease of affinity against wt-A2 [6]
1 | factor VIII purified from therapeutic concentrates (Method M, American Red Cross), P00451 20-1667; P00451 1668-2351 | > 90% | 6.94 | 100 nM | – | – | –
2 | recombinant A2 mutant #5 (Lys-466 to Ala) (from UniProt P00451 392-759) | – | – | – | 130 | 6.22 | 28 fold
3 | recombinant A2 mutant #6 (Arg-471 to Ala) (from UniProt P00451 392-759) | – | – | – | 34.6 | 6.40 | 19 fold
4 | recombinant A2 mutant #7 (Arg-484 to Ala) (from UniProt P00451 392-759) | – | – | – | 64.9 | 6.49 | 15 fold

Further substances by rising pKd [5], results first:

Row | percent of binding competed by an excess of unlabeled fVIII [1] | pKd [2] | IC50 (read off the curve) [3] | Activity of reconstituted FVIIIa (% of wt activity) (% of wt activity) [4] | pKd [5] | fold decrease of affinity against wt-A2 [6] | Substance
5 | – | – | – | 291 | 7.33 | – | recombinant A2 mutant #4 (Lys-380 to Ala) (from UniProt P00451 392-759)
6 | – | – | – | 417 | 7.72 | – | recombinant A2 mutant #3 (His-378 to Ala) (from UniProt P00451 392-759)
7 | – | – | – | 365 | 7.74 | – | recombinant A2 mutant #2 (Lys-377 to Ala) (from UniProt P00451 392-759)

— patent publication US20070232789A1
